From US20030229005

How the values were obtained:
Dnp-GPVNFRVC(Me)-NH2 = biological target: T1, Dnp-GPVNFRVC(Me)-NH2
T1 chain: GPVNFRVX

B1: collagenase 1 (protein)
chain: FVLTEGNPRWEQTHLTYRIENYTPDLPRADVDHAIEKAFQLWSNVTPLTFTKVSEGQADIMISFVRGDHRDNSPFDGPGGNLAHAFQPGPGIGGDAHFDEDERWTNNFREYNLHRVAAHELGHSLGLSHSTDIGALMYPSYTFSGDVQLAQDDIDGIQAIYGRSQNPVQPIGPQTPKACDSKLTFDAITTIRGEVMFFKDRFYMRTNPFYPEVELNFISVFWPQLPNGLEAAYEFADRDEVRFFKGNKYWAVQGQNVLHGYPKDIYSSFGFPRTVKHIDAALSEENTGKTYFFVANKYWRYDEYKRSMDPGYPKMIAHDFPGIGHKVDAVFMKDGFFYFFHGTRQYKFDPKTKRILTLQKANSWFNCRKN
Type IV collagen, P08572
  cleavage seen on a gel: Both collagenase 1 and gelatinase B processed type IV collagen under the conditions used in our experiments

B2: human Gelatinase-A (protein)
chain: YNFFPRKPKWDKNQITYRIIGYTPDLDPETVDDAFARAFQVWSDVTPLRFSRIHDGEADIMINFGRWEHGDGYPFDGKDGLLAHAFAPGTGVGGDSHFDDDELWTLGEGQVVRVKYGNADGEYCKFPFLFNGKEYNSCTDTGRSDGFLWCSTTYNFEKDGKYGFCPHEALFTMGGNAEGQPCKFPFRFQGTSYDSCTTEGRTDGYRWCGTTEDYDRDKKYGFCPETAMSTVGGNSEGAPCVFPFTFLGNKYESCTSAGRSDGKMWCATTANYDDDRKWGFCPDQGYSLFLVAAHEFGHAMGLEHSQDPGALMAPIYTYTKNFRLSQDDIKGIQELYGASPDIDLGTGPTPTLGPVTPEICKQDIVFDGIAQIRGEIFFFKDRFIWRTVTPRDKPMGPLLVATFWPELPEKIDAVYEAPQEEKAVFFAGNEYWIYSASTLERGYPKPLTSLGLPPDVQRVDAAFNWSKNKKTYIFAGDKFWRYNEVKKKMDPGFPKLIADAWNAIPDNLDAVVDLQGGGHSYFFKGAYYLKLENQSLKSVKFGSIKSDWLGC
Dnp-GPVNFRVC(Me)-NH2
  Selectivity v. Coll-3, substrate 5 uM: 88 unitless
Type IV collagen, P08572
  cleavage seen on a gel: No detectable cleavage was observed by gelatinase A in an earlier experiment
